Source: PMC11335306

Tests used:
[1] = biological target: BTV-15-VP5-Δ43-Nhis, seleno-methionyl-derivatised (Bluetongue virus serotype 15); assay: crystal structure; high pH crystal form: 0.09 M sodium formate, 6.6% PGA-LM, 0.1 M Tris (pH 9.0), 20 °C; space group P1, nine subunits in the asymmetric unit; Se-Met protein
[2] = biological target: BTV-15-VP5-Δ43-Nhis, unlabelled (Bluetongue virus serotype 15); assay: crystal structure; low pH crystal form: 1.0 M sodium chloride, 0.1 M Tris (pH 6.0), 20 °C; space group H3; native protein

| Substance | stoichiometry N [1] | stoichiometry N [2] |
| --- | --- | --- |
| BTV-15-VP5-Δ43-Nhis, seleno-methionyl-derivatised (domain or fragment) | 3 | – |
| BTV-15-VP5-Δ43-Nhis, unlabelled (domain or fragment) | – | 3 |
